B1: anti-CD66c chimeric antibody 8F5 (antibody, human IgG1, V domains shown)
VH: EVQLQQSGPELVKPGASMKISCKASGYSFTDYTMNWVKQSHGKNLEWIGLINPFHGGTVSNQRFKVKATLTVDVSSNTAYMELLSLTSDDSAVYYCVRGDPVRHYYALAYWGQGTSVTVSS
VL: DIQMTQSPASLSASVGETVTITCGASENVYGTLNWYQRKQGKSPQLLIYGATNLADGMSSRFSGSGSGRQYSLKISSLHPDDVATYYCQNVLSAPYTFGGGTKLEII
notes: also called chimeric 8F5; chi 8F5
B2: recombinant humanized anti-CD66c antibody Protein ID 3058 (Vk8 + VH11) (antibody, human IgG1, V domains shown)
VH: QVQLVQSGAEVKKPGASVKISCKASGYSFTDYTMHWVKQAPGQNLEWIGLINPFGGSTSYAQKFKGRVTMTRDTSTNTAYMELSRLRSDDTAVYYCVRGDPVRHYYALAYWGQGTLVTVSS
VL: DIQMTQSPSTLSASVGDRVTITCRASENVYGTLNWYQRKPGKAPKLLIYGATNLADGMPSRFSGSGSGTEYTLTISSLQPDDFATYYCQNVLSAPYTFGGGTKLEIK
notes: also called hu 3058; #86
B3: recombinant humanized anti-CD66c antibody Protein ID 3007 (Vk7 + VH6) (antibody, human IgG1, V domains shown)
VH: QVQLVQSGAEVKKPGASMKISCKASGYSFTDYTMNWVKQAPGQNLEWIGLINPFHGGTVSNQRFKVKATLTVDVSTNTAYMELSRLRSDDTAVYYCVRGDPVRHYYALAYWGQGTLVTVSS
VL: B2 VL with R24G, M58V
notes: also called hu 3007; #43
B4: recombinant humanized anti-CD66c antibody Protein ID 2938 (Vk5 + VH7) (antibody, human IgG1, V domains shown)
VH: B3 VH with K38R, N44G
VL: B2 VL with R24G, N34A, M58V, T69R
notes: also called hu 2938
B5: recombinant humanized anti-CD66c antibody Protein ID 3043 (Vk8 + VH6) (antibody, V domains shown)
VH: B3 VH
VL: B2 VL
notes: also called hu 3043; #71

Positions count from the first letter of the chain named.

One test addresses T1, Antigen CD66c (CEACAM6; Sino Biological, Inc.) (UniProt P40199 35-320).
T1 construct: Bought antigen, coated on the ELISA plate; construct not described; also called CECACAM6 (CD66c) antigen; CD66c antigen
T1 sequence (looked up): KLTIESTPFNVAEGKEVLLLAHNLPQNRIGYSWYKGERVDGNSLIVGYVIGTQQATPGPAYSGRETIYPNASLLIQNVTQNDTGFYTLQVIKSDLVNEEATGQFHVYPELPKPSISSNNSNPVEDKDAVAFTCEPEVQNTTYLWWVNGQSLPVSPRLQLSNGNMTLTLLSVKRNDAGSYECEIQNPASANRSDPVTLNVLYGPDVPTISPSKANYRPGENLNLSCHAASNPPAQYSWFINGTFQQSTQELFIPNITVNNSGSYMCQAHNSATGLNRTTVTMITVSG
Briefly: ELISA, CEACAM6 coated 100 ng/well, antibody at 13.72 ng/ml. The method, then: (§1) Antigen CD66c (CEACAM6; Sino Biological, Inc.) and CEACAM1 antigen (Sino Biological, Inc.) were coated on a 96-well plate at a rate of 100 ng per well and then blocked. The primary antibody was diluted 3-fold from 10 ug/ml and bound at 37° C. for 1 hour. […] goat anti-Human Ig-HRP conjugate (Jackson ImmunoResearch) as a secondary antibody was diluted 1:10,000 and incubated at 37° C. for 30 minutes. The washing was carried out at three times between each step, and the TMB reaction was performed, stopped with 1N H₂SO₄ solution at the same amount of TMB solution (100 ul) and then OD value was measured at 450 nm.
(§2) As a result of the experiment, the binding affinities to CD66c antigen of the five kinds of recombinant humanized antibodies selected from among 96 kinds of recombinant humanized antibodies are shown in FIG. 4a, Table 12, FIG. 4b and Table 13. FIG. 4a and Table 12 show the binding capacity of the antibodies to CECACAM6 CD66c) antigen, and FIG. 4b and Table 13 are the results for the CEACAM1 (CD66a) antigen.
(In an ELISA, binding on a coated surface is turned into a signal by an enzyme label.)
Consider B1, for which the “OD 450 nm” value came to 1.15 OD 450 nm.

Regarding B2, the “OD 450 nm” value is 1.06 OD 450 nm.

For B3, the “OD 450 nm” value worked out at 1.64 OD 450 nm.

Take B4: the “OD 450 nm” value was determined as 1.15 OD 450 nm.

Take B5: the “OD 450 nm” value was determined as 1.37 OD 450 nm.

Another test has as its target T2, CEACAM1 antigen (Sino Biological, Inc.) (UniProt P13688 35-428).
T2 construct: Bought antigen, coated on the ELISA plate; construct not described; also called CEACAM1 (CD66a) antigen; CD66a
T2 sequence (looked up): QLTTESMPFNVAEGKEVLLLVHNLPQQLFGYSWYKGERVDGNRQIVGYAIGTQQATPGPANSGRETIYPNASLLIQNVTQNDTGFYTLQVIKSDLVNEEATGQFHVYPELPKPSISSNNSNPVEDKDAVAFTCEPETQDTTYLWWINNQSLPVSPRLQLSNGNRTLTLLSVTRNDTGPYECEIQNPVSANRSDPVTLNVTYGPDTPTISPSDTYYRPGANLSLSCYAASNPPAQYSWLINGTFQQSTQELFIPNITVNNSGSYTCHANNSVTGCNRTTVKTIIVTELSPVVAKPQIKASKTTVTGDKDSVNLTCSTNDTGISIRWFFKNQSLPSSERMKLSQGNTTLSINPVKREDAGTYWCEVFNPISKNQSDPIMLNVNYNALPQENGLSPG
Nature of the test: ELISA, CEACAM1 coated 100 ng/well, antibody at 123.46 ng/ml. The method, then: as §1
With B1, the “OD 450 nm” value was determined as 0.95 OD 450 nm.

As to B2, the “OD 450 nm” value is 0.07 OD 450 nm.

Regarding B3, the “OD 450 nm” value came to 0.82 OD 450 nm.

As for B4, the “OD 450 nm” value turned out to be 0.1 OD 450 nm.

For B5, the “OD 450 nm” value is 0.7 OD 450 nm.

In another test the target is T2, CEACAM1 antigen (Sino Biological, Inc.). Nature of the test: ELISA, CEACAM1 coated 100 ng/well, antibody at 3333.33 ng/ml. The method, then: as §1
Consider B1, for which the “OD 450 nm” value turned out to be 1.24 OD 450 nm.

For the molecule B2, the “OD 450 nm” value was found to be 0.31 OD 450 nm.

For B3, the “OD 450 nm” value amounted to 1.15 OD 450 nm.

Regarding B4, the “OD 450 nm” value stood at 0.27 OD 450 nm.

B5: the “OD 450 nm” value turned out to be 1.22 OD 450 nm.

The target is the same in another test. Nature of the test: ELISA, CEACAM1 coated 100 ng/well, antibody at 4.57 ng/ml. The method, then: as §1
With B1, the “OD 450 nm” value came out at 0.28 OD 450 nm.

For B2, the “OD 450 nm” value worked out at 0.05 OD 450 nm.

On to B3, for which the “OD 450 nm” value worked out at 0.27 OD 450 nm.

Take B4: the “OD 450 nm” value came out at 0.05 OD 450 nm.

B5: the “OD 450 nm” value was determined as 0.27 OD 450 nm.

The target of another test is T1, Antigen CD66c (CEACAM6; Sino …). Nature of the test: ELISA, CEACAM6 coated 100 ng/well, antibody at 41.15 ng/ml. The protocol:
as §1
With B1, the “OD 450 nm” value came to 2.02 OD 450 nm.

As for B2, the “OD 450 nm” value was found to be 1.38 OD 450 nm.

In the case of B3, the “OD 450 nm” value was determined as 2.17 OD 450 nm.

In the case of B4, the “OD 450 nm” value was 1.72 OD 450 nm.

Turning to B5, the “OD 450 nm” value was found to be 1.73 OD 450 nm.

In another test the target is T2, CEACAM1 antigen (Sino Biological, Inc.). Briefly: ELISA, CEACAM1 coated 100 ng/well, antibody at 0.51 ng/ml. The method, then: as §1
Regarding B1, the “OD 450 nm” value is 0.1 OD 450 nm.

B2: the “OD 450 nm” value amounted to 0.04 OD 450 nm.

As for B3, the “OD 450 nm” value stood at 0.11 OD 450 nm.

For B4, the “OD 450 nm” value was found to be 0.05 OD 450 nm.

Consider B5, for which the “OD 450 nm” value worked out at 0.1 OD 450 nm.

The next test concerns the target T1, Antigen CD66c (CEACAM6; Sino …). Nature of the test: ELISA, CEACAM6 coated 100 ng/well, antibody at 4.57 ng/ml. The protocol:
as §1, §2
For B1, the “OD 450 nm” value amounted to 0.8 OD 450 nm.

Take B2: the “OD 450 nm” value amounted to 0.74 OD 450 nm.

With B3, the “OD 450 nm” value came out at 1.02 OD 450 nm.

As for B4, the “OD 450 nm” value turned out to be 0.65 OD 450 nm.

For the molecule B5, the “OD 450 nm” value turned out to be 0.91 OD 450 nm.

For another test the target is unchanged. Briefly: ELISA, CEACAM6 coated 100 ng/well, antibody at 123.46 ng/ml. The method, then: as §1, §2
In the case of B1, the “OD 450 nm” value was 2.83 OD 450 nm.

Turning to B2, the “OD 450 nm” value is 2.22 OD 450 nm.

B3: the “OD 450 nm” value came out at 2.9 OD 450 nm.

On to B4, for which the “OD 450 nm” value worked out at 2.56 OD 450 nm.

For the molecule B5, the “OD 450 nm” value was 2.29 OD 450 nm.

Another test deals with T2, CEACAM1 antigen (Sino Biological, Inc.). Briefly: ELISA, CEACAM1 coated 100 ng/well, antibody at 0.17 ng/ml. The protocol:
as §1, §2
In the case of B1, the “OD 450 nm” value was found to be 0.08 OD 450 nm.

B2: the “OD 450 nm” value came out at 0.04 OD 450 nm.

Turning to B3, the “OD 450 nm” value stood at 0.09 OD 450 nm.

With B4, the “OD 450 nm” value worked out at 0.04 OD 450 nm.

With B5, the “OD 450 nm” value stood at 0.08 OD 450 nm.

A further test concerns the target T1, Antigen CD66c (CEACAM6; Sino …). Briefly: ELISA, CEACAM6 coated 100 ng/well, antibody at 1.52 ng/ml. The method, then: as §1, §2
With B1, the “OD 450 nm” value came out at 0.53 OD 450 nm.

On to B2, for which the “OD 450 nm” value came out at 0.53 OD 450 nm.

B3: the “OD 450 nm” value worked out at 0.79 OD 450 nm.

As to B4, the “OD 450 nm” value was determined as 0.48 OD 450 nm.

For B5, the “OD 450 nm” value came out at 0.7 OD 450 nm.

A further test shares this target. Nature of the test: ELISA, CEACAM6 coated 100 ng/well, antibody at 1111.11 ng/ml. The protocol:
as §1, §2
As for B1, the “OD 450 nm” value is 3.3 OD 450 nm.

With B2, the “OD 450 nm” value is 3.19 OD 450 nm.

In the case of B3, the “OD 450 nm” value worked out at 3.23 OD 450 nm.

Consider B4, for which the “OD 450 nm” value turned out to be 3.16 OD 450 nm.

For B5, the “OD 450 nm” value was 2.74 OD 450 nm.

The target of a further test is T3, CD66c (Cluster of Differentiation 66c) on cells (UniProt P40199 35-320, limits assumed).
T3 construct: whole, on cells; also called CEACAM6; CEACAM 6
T3 sequence (looked up): T1 sequence (looked up)
Briefly: flow cytometry on CD66c-positive A549 cells, FITC anti-human IgG. The method, then: Each expressed 96 recombinant humanized antibody was poured and reacted in a test tube containing the same amount […] of CD66c-positive A549 non-small-cell lung cancer cell line at 4° C. for 30 minutes, washed with PBS, and treated with FITC-conjugated goat anti-Huma IgG (DiNona Inc, Korea) was added and incubated at 4° C. for 15 minutes. After washing with PBS, the cells were analyzed with a flow cytometer (Stratedigm, S1000EXi) and the results are shown below.
Among the 96 recombinant humanized antibody candidates, eight were firstly selected based on the degree of expression, the presence of aggregation, and the degree of cell binding (Table 9 and Table 10, FIGS. 3A to 3E).
Regarding B1, the “% (% gated × mean), against the chimeric antibody” value (from here on “% (% gated × mean)”) amounted to 100%; the “% gated” value was determined as 73%; the “Mean (fluorescence)” value came to 619.

For the molecule B2, the “% (% gated × mean)” value was determined as 103%; the “% gated” value stood at 72%; the “Mean (fluorescence)” value came to 645.

In the case of B3, the “% (% gated × mean)” value is 88.8%; the “% gated” value is 71%; the “Mean (fluorescence)” value turned out to be 565.

In the case of B4, the “% (% gated × mean)” value is 96%; the “% gated” value came to 71%; the “Mean (fluorescence)” value turned out to be 611.

On to B5, for which the “% (% gated × mean)” value worked out at 105%; the “% gated” value stood at 69%; the “Mean (fluorescence)” value was 686.

The target of the next test is T2, CEACAM1 antigen (Sino Biological, Inc.). Briefly: ELISA, CEACAM1 coated 100 ng/well, antibody at 1.52 ng/ml. The method, then:
as §1
As to B1, the “OD 450 nm” value stood at 0.16 OD 450 nm.

Regarding B2, the “OD 450 nm” value stood at 0.05 OD 450 nm.

On to B3, for which the “OD 450 nm” value is 0.18 OD 450 nm.

For the molecule B4, the “OD 450 nm” value was 0.05 OD 450 nm.

Consider B5, for which the “OD 450 nm” value was determined as 0.16 OD 450 nm.

The values are drawn from US20220119518A1 (KUMHO HT, published 2022).
